Columns and labels:
[1] = system: Gardnerella vaginalis; experiment: G. vaginalis growth in liquid culture, viability as CFU
Method: G. vag isolates were recovered from the vaginal discharge of BV positive patients and identification at the species level was performed by species-specific PCR using the primer pairs G. vaginalis V2-R1 and G. vaginalis V6-U2.
Cells were grown in aerobic conditions at 37° C. at 5% CO2 in PMD medium. PMD medium contains: proteose peptone No. 3 (BD211693) 15 g/L, maltone 2 g/L, dextrose 1 g/L, Na2HPO2 1 g/L, NaH2PO4 1 g/L adjusted to pH6.8. High Iron PMD medium additional contains 500 mg/L human hemoglobin. No Iron PMD is prepare by treating PMD medium with Chelex® 100 Chelating Resin (Bio-Rad Cat #1432832) then adding back 0.1 mM magnesium sulfate, 0.1 mM calcium chloride, and 10 μM zinc chloride. Low Iron PMD medium is prepared by adding 10 μM ferric ammonium citrate (FAC) to No Iron PMD. Overnight broth cultures of G. vaginalis were grown in High Iron PMD, centrifuged, resuspended No Iron PMD, incubated for 2 hr at 37° C. then diluted to 2.5×10^7 cells/mL in Low Iron PMD. Cells were grown in liquid culture for 24-48 hr then plated on agar to assess viability (expressed as colony forming units per mL (CFU)). Bulk bLF was dissolved in water and diluted in culture medium.

[2] = in vivo
Excerpt: Zinc levels in vaginal fluid of BV have also been measured. Recommended zinc levels for bacterial growth are not readily available as zinc toxicity is low and the capacity of bacteria to store zinc is high, thus contributing to a very wide range of acceptable zinc levels that will support bacterial growth. […] Furthermore, in an L. iners based microbiome that has not progressed to full blown BV, a significant increase in calprotectin is also seen. Thus, when an altered microbiome takes hold, the body appears to be an active conspirator in discouraging L. Crispatus-type re-growth.
The remainder is expelled. This means that free iron is released from a dose of bovine lactoferrin that is partially saturated with iron and may become accessible to bacteria. Even if the released iron is immediately bound by the remaining lactoferrin, this proteolysis will inevitably increase the overall saturation percentage of the remaining bovine lactoferrin. In turn, it will also increase the saturation of human lactoferrin, since bovine and human forms exist in relative equilibrium considering that their bindings constants are similar. It also follows, that lowering the initial iron saturation of bovine lactoferrin will lower human lactoferrin's iron saturation levels and thus provide the least access to the bacterial binding proteins that scavenge iron from human lactoferrin. […]

[3] = system: G. vag strain 14.2; experiment: antibiotic synergy testing, checkerboard cross dilution method in broth cultures; type: cell-based, Gardnerella vaginalis; details: 4 mg/mL bLF, 24 hr

B1: bovine lactoferrin (protein, UniProt P24627 20-708, looked up)
Lactotransferrin: APRKNVRWCTISQPEWFKCRRWQWRMKKLGAPSITCVRRAFALECIRAIAEKKADAVTLDGGMVFEAGRDPYKLRPVAAEIYGTKESPQTHYYAVAVVKKGSNFQLDQLQGRKSCHTGLGRSAGWIIPMGILRPYLSWTESLEPLQGAVAKFFSASCVPCIDRQAYPNLCQLCKGEGENQCACSSREPYFGYSGAFKCLQDGAGDVAFVKETTVFENLPEKADRDQYELLCLNNSRAPVDAFKECHLAQVPSHAVVARSVDGKEDLIWKLLSKAQEKFGKNKSRSFQLFGSPPGQRDLLFKDSALGFLRIPSKVDSALYLGSRYLTTLKNLRETAEEVKARYTRVVWCAVGPEEQKKCQQWSQQSGQNVTCATASTTDDCIVLVLKGEADALNLDGGYIYTAGKCGLVPVLAENRKSSKHSSLDCVLRPTEGYLAVAVVKKANEGLTWNSLKDKKSCHTAVDRTAGWNIPMGLIVNQTGSCAFDEFFSQSCAPGADPKSRLCALCAGDDQGLDKCVPNSKEKYYGYTGAFRCLAEDVGDVAFVKNDTVWENTNGESTADWAKNLNREDFRLLCLDGTRKPVTEAQSCHLAVAPNHAVVSRSDRAAHVKQVLLHQQALFGKNGKNCPDKFCLFKSETKNLLFNDNTECLAKLGGRPTYEEYLGTEYVTAIANLKKCSTSPLLEACAFLTR
notes: bulk bLF dissolved in water for in vitro tests
- concentration range of dose-dependent inhibition of G. vag growth ([1]; G. vag isolate 14.2, Low Iron PMD, FIG. 2): 0.5 to 32 mg/mL
- effect on G. vaginalis growth ([1]; iron-containing bovine lactoferrin preparation): growth suppression
- share of a vaginal dose broken down via vaginal or bacterial proteases [2]: ≤ 20%
- growth inhibited [3]: 19.3%

From US20230293578A1, “TREATMENT OF BACTERIAL VAGINOSIS” (priority 2020, published 2023)
